Data published in patent US20100261660A1.

Target: Soluble CD28-Ig (extracellular domain of human CD28 fused to the Fc portion of human IgG1) (human), P10747
Assay: competitive FACS on transfected cells, biotin-sCD28-Ig with FITC-sCTLA-4-Ig; grade 0-2 of CD28/CTLA-4 ratio vs WT hB7-1

Binding Score	Binder
1	Round 2 CD28A4-9 (ligand, not fully specified; X: residue not identified in the source; ends and bridges not checked) ITPKSVTKRVKETVMLSCDYNTSTEKLTSLRIYWQKDSKMVLAILPGKVQVWPEYKNRTITDMNDNPRIVILALRLSDSGTYTCVIQKPVLKGAYKLEHLTSVRLMIRADFPVPTINDLGNPSPNIRRLICSTSGGFPRPHLYWLENGEELNATNTTVSQDPETKLYMISSELDFNVTNNHSIVCLIKYGELSVSQIFPWSKPKQEPPIDQLPFWVIIPVSGALVLTAVVLYCPACRHVARWKRTRRNEETVGTERLSPIYLGSAQSRAEVPSLSX
1	Round 2 CD28A12-5 (ligand, not fully specified; X: residue not identified in the source; ends and bridges not checked; also: glycosylated membrane protein, sites not given here) ITPKSVTKRVKETVMLSCDYNTSTEELTSLRIYWRKDSKMXLAILPGKVQVWPEYKNRTITDMNDNLRIVILALRLSDSGTYTCVIQKPDLKGAYKLEHLTSVRLMIRADFPVPTINDLGNPSPNIRRLICSTSGGFPRPHLYWLENGEELNATNTTVSQDPGTELYMISSELDFNVTNNHSIVCLIKYGELLVSQIFPWSKPKQEPPIDQLPFWVIIPVSGALVLTAVVLYCLACRHVARWKRTRRNEETVGTERLSPIYLGSAQSSG
